Patent publication US20150376264A1 (CALIFORNIA INSTITUTE FOR BIOMEDICAL RESEARCH, published 2015)

Molecular target: Leptin receptor
Assay: cell-based or functional assay

EC50 (Baf3-LepR cell proliferation, AlamarBlue): 0.0575 nM
B1: BLV1H12 hLeptin fusion protein (antibody, human IgG1)
heavy: not shown
light: QAVLNQPSSVSGSLGQRVSITCSGSSSNVGNGYVSWYQLIPGSAPRTLIYGDTSRASGVPDRFSGSRSGNTATLTISSLQAEDEADYFCASAEDSSSNAVFGSGTTLTVLGQPKSPPSVTLFPPSTEELNGNKATLVCLISDFYPGSVTVVWKADGSTITRNVETTRASKQSNSKYAASSYLSLTSSDWKSKGSYSCEVTHEGSTVTKTVKPSECS
